From paper PMC5773378 (Immunity, 2017)
Like-named read-outs stand apart in the source and are kept apart here.

T1: human IL-23 receptor ectodomain (IL-23R, full ECD, residues 1-317) (human, UniProt Q5VWK5-1 24-317)
T1 sequence (looked up): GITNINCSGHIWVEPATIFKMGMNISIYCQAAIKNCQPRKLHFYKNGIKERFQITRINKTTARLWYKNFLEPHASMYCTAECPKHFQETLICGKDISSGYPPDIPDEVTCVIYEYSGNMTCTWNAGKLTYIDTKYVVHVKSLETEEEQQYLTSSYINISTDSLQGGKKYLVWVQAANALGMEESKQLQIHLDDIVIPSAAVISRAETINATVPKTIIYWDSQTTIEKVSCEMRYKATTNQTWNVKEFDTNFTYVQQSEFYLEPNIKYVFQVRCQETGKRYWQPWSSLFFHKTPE

B1: Nanobody 124C4 (single domain VHH camelid antibody against human IL-23) (VHH)
VHH: EVQLVESGGGLVQPGGSLRLSCAASGFTLDDYAIAWFRQAPGKEREGVSGIDSGDGSAYYADSVKGRFTISSDNAKNTVYLQMNSLRPEDTAVYYCARVRTGWGLNAPDYAMDYWGKGTLVTVSS
B2: human interleukin-23 (IL-23), heterodimer of IL-23p19 and IL-12p40 (complex)
chain 1: RAVPGGSSPAWTQCQQLSQKLCTLAWSAHPLVGHMDLREEGDEETTNDVPHIQCGDGCDPQGLRDNSQFCLQRIHQGLIFYEKLLGSDIFTGEPSLLPDSPVGQLHASLLGLSQLLQPEGHHWETQQIPSLSPSQPWQRLLLRFKILRSLQAFVAVAARVFAHGAATLSP
chain 2: IWELKKDVYVVELDWYPDAPGEMVVLTCDTPEEDGITWTLDQSSEVLGSGKTLTIQVKEFGDAGQYTCHKGGEVLSHSLLLLHKKEDGIWSTDILKDQKEPKNKTFLRCEAKNYSGRFTCWWLTTISTDLTFSVKSSRGSSDPQGVTCGAATLSAERVRGDNKEYEYSVECQEDSACPAAEESLPIEVMVDAVHKLKYENYTSSFFIRDIIKPDPPKNLQLKPLKNSRQVEVSWEYPDTWSTPHSYFSLTFCVQVQGKSKREKKDRVFTDKTSATVICRKNASISVRAQDRYYSSSWSEWASVPCS
B3: preformed human IL-23:IL-23R binary complex (complex)
chain 1: B2 chain 1
chain 2: B2 chain 2
chain 3: T1 sequence (looked up)
B4: human IL-12p40, the p40 subunit of IL-23 (natural protein, UniProt P29460 23-328, looked up)
chain: B2 chain 2
B5: human IL-23p19, the helical subunit of IL-23 (natural protein, UniProt Q9NPF7 20-189, looked up)
chain: B2 chain 1
B6: Nanobody 22E11 (single domain VHH camelid antibody against human IL-23) (VHH)
VHH: EVQLVESGGGLVQAGGSLRLSCAASGRTFSWSAVGWFRQAPGKEREFVAAIRWSGGSPYYADSVKDRFTISRDNAKNTVYLQMNSLRPEDTAVYLCGETSLFPTSRGSHYDTWGQGTQVTVSS
B7: Fab fragment of ustekinumab (Fab, V domains shown)
VH: EVQLVQSGAEVKKPGESLKISCKGSGYSFTTYWLGWVRQMPGKGLDWIGIMSPVDSDIRYSPSFQGQVTMSVDKSITTAYLQWNSLKASDTAMYYCARRRPGQGYFDFWGQGTLVTVSS
VL: DIQMTQSPSSLSASVGDRVTITCRASQGISSWLAWYQQKPEKAPKSLIYAASSLQSGVPSRFSGSGSGTDFTLTISSLQPEDFATYYCQQYNIYPYTFGQGTKLEIK
B8: Nanobody 37D5 (single domain VHH camelid antibody against human IL-23) (VHH)
VHH: EVQLVESGGGLVQPGGSLRLSCAASGFTLDYLAIGWFRQAPGKEREGVSCVSSSGQYTYYADSVKGRFTISRDNAESTVYLQMNSLKPEDTAVYYCATDPECYRVRGYYNGEYDYWGQGTQVTVSS
B9: Fab fragment of briakinumab (ABT-874) (Fab, V domains shown)
VH: QVQLVESGGGVVQPGRSLRLSCAASGFTFSSYGMHWVRQAPGKGLEWVAFIRYDGSNKYYADSVKGRFTISRDNSKNTLYLQMNSLRAEDTAVYYCKTHGSHDNWGQGTMVTVSS
VL: QSVLTQPPSVSGAPGQRVTISCSGSRSNIGSNTVKWYQQLPGTAPKLLIYYNDQRPSGVPDRFSGSKSGTSASLAITGLQAEDEADYYCQSYDRYTHPALLFGTGTKVTVL

Columns and labels:
[1] = molecular target: T2, human interleukin-23 (IL-23), heterodimer of IL-23p19 and IL-12p40 (human, UniProt Q9NPF7;P29460); assay: cross-linking
[2] = molecular target: T3, human IL-12 receptor subunit beta-1 ectodomain (IL-12Rβ1, full ECD) (human, UniProt P42701-1 24-544); assay: ITC
[3] = molecular target: T1, human IL-23 receptor ectodomain …; assay: SEC-MALLS
[4] = molecular target: T3, human IL-12 receptor subunit beta-1 …; assay: cross-linking
[5] = molecular target: B4; assay: crystal structure
[6] = molecular target: T1, human IL-23 receptor ectodomain …; assay: crystal structure
[7] = molecular target: T4, human IL-12p40, the p40 subunit of IL-23 (human, UniProt P29460); assay: crystal structure
[8] = molecular target: T2, human interleukin-23 (IL-23), …; assay: crystal structure
[9] = molecular target: T4, human IL-12p40, the p40 subunit of IL-23; assay: crystal structure; remark: listed apart in the source
[10] = molecular target: T2, human interleukin-23 (IL-23), …; assay: crystal structure; remark: listed apart in the source

Binder: B1
binding result [1]: binds

Binder: B2
Kd [2]: 2000 nM | stoichiometry N [3]: 1

Binder: B3
Kd [2]: 25 nM

Binder: B4
binding result [4]: binds

Binder: B5
binding result [5]: binds | binding result [6]: binds

Binder: B6
binding result [7]: binds | binding result [8]: binds

Binder: B7
binding result [1]: binds

Binder: B8
binding result [1]: binds

Binder: B9
binding result [9]: binds | binding result [10]: binds
